Among the data in ChEMBL document CHEMBL1212811, “Chemical phylogenetics of histone deacetylases” (Nat Chem Biol, 2010) are Km values, retold here.

Substrate in series [1]: CC(=O)N[C@@H](CC(C)C)C(=O)NCC(=O)N[C@@H](CCCCNC(=O)C(F)(F)F)C(=O)Nc1ccc2c(C)cc(=O)oc2c1
Put plainly: Activity of HDAC4 at 10 uM.

Substrate in series [2]: CC(=O)N[C@@H](CC(C)C)C(=O)NCC(=O)N[C@@H](CCCCNC(=O)C(F)(F)F)C(=O)Nc1ccc2c(C)cc(=O)oc2c1
Put plainly: Activity of HDAC8 at 10 uM.

Substrate in series [3]: CC(=O)NCCCC[C@H](NC(=O)CNC(=O)[C@H](CC(C)C)NC(C)=O)C(=O)Nc1ccc2c(C)cc(=O)oc2c1
To be noted: 10 uM.

Substrate in series [4]: CC(=O)N[C@@H](CC(C)C)C(=O)NCC(=O)N[C@@H](CCCCNC(=O)C(F)(F)F)C(=O)Nc1ccc2c(C)cc(=O)oc2c1
Kind of series: Activity of HDAC9 at 10 uM.

Substrate in series [5]: CC(=O)NCCCC[C@H](NC(=O)CNC(=O)[C@H](CC(C)C)NC(C)=O)C(=O)Nc1ccc2c(C)cc(=O)oc2c1
To be noted: 10 uM. This is another data set of the same source.

Substrate in series [6]: CC(=O)N[C@@H](CC(C)C)C(=O)NCC(=O)N[C@@H](CCCCNC(=O)C(F)(F)F)C(=O)Nc1ccc2c(C)cc(=O)oc2c1
Kind of series: Activity of HDAC7 at 10 uM.

B1: Histone deacetylase 4 (Homo sapiens), P56524 (protein)
chain: MSSQSHPDGLSGRDQPVELLNPARVNHMPSTVDVATALPLQVAPSAVPMDLRLDHQFSLPVAEPALREQQLQQELLALKQKQQIQRQILIAEFQRQHEQLSRQHEAQLHEHIKQQQEMLAMKHQQELLEHQRKLERHRQEQELEKQHREQKLQQLKNKEKGKESAVASTEVKMKLQEFVLNKKKALAHRNLNHCISSDPRYWYGKTQHSSLDQSSPPQSGVSTSYNHPVLGMYDAKDDFPLRKTASEPNLKLRSRLKQKVAERRSSPLLRRKDGPVVTALKKRPLDVTDSACSSAPGSGPSSPNNSSGSVSAENGIAPAVPSIPAETSLAHRLVAREGSAAPLPLYTSPSLPNITLGLPATGPSAGTAGQQDAERLTLPALQQRLSLFPGTHLTPYLSTSPLERDGGAAHSPLLQHMVLLEQPPAQAPLVTGLGALPLHAQSLVGADRVSPSIHKLRQHRPLGRTQSAPLPQNAQALQHLVIQQQHQQFLEKHKQQFQQQQLQMNKIIPKPSEPARQPESHPEETEEELREHQALLDEPYLDRLPGQKEAHAQAGVQVKQEPIESDEEEAEPPREVEPGQRQPSEQELLFRQQALLLEQQRIHQLRNYQASMEAAGIPVSFGGHRPLSRAQSSPASATFPVSVQEPPTKPRFTTGLVYDTLMLKHQCTCGSSSSHPEHAGRIQSIWSRLQETGLRGKCECIRGRKATLEELQTVHSEAHTLLYGTNPLNRQKLDSKKLLGSLASVFVRLPCGGVGVDSDTIWNEVHSAGAARLAVGCVVELVFKVATGELKNGFAVVRPPGHHAEESTPMGFCYFNSVAVAAKLLQQRLSVSKILIVDWDVHHGNGTQQAFYSDPSVLYMSLHRYDDGNFFPGSGAPDEVGTGPGVGFNVNMAFTGGLDPPMGDAEYLAAFRTVVMPIASEFAPDVVLVSSGFDAVEGHPTPLGGYNLSARCFGYLTKQLMGLAGGRIVLALEGGHDLTAICDASEACVSALLGNELDPLPEKVLQQRPNANAVRSMEKVMEIHSKYWRCLQRTTSTAGRSLIEAQTCENEEAETVTAMASLSVGVKPAEKRPDEEPMEEEPPL
What is called Km is the substrate concentration at which the rate is half of its maximum. For B1, in series [1], the Km came to 10.3 µM.

B2: Histone deacetylase 8 (Homo sapiens), Q9BY41 (protein)
chain: MEEPEEPADSGQSLVPVYIYSPEYVSMCDSLAKIPKRASMVHSLIEAYALHKQMRIVKPKVASMEEMATFHTDAYLQHLQKVSQEGDDDHPDSIEYGLGYDCPATEGIFDYAAAIGGATITAAQCLIDGMCKVAINWSGGWHHAKKDEASGFCYLNDAVLGILRLRRKFERILYVDLDLHHGDGVEDAFSFTSKVMTVSLHKFSPGFFPGTGDVSDVGLGKGRYYSVNVPIQDGIQDEKYYQICESVLKEVYQAFNPKAVVLQLGADTIAGDPMCSFNMTPVGIGKCLKYILQWQLATLILGGGGYNLANTARCWTYLTGVILGKTLSSEIPDHEFFTAYGPDYVLEITPSCRPDRNEPHRIQQILNYIKGNLKHVV
Take B2: the Km in series [2] was determined as 190 µM.

B3: Protein deacetylase HDAC6 (Homo sapiens), Q9UBN7 (protein)
chain: MTSTGQDSTTTRQRRSRQNPQSPPQDSSVTSKRNIKKGAVPRSIPNLAEVKKKGKMKKLGQAMEEDLIVGLQGMDLNLEAEALAGTGLVLDEQLNEFHCLWDDSFPEGPERLHAIKEQLIQEGLLDRCVSFQARFAEKEELMLVHSLEYIDLMETTQYMNEGELRVLADTYDSVYLHPNSYSCACLASGSVLRLVDAVLGAEIRNGMAIIRPPGHHAQHSLMDGYCMFNHVAVAARYAQQKHRIRRVLIVDWDVHHGQGTQFTFDQDPSVLYFSIHRYEQGRFWPHLKASNWSTTGFGQGQGYTINVPWNQVGMRDADYIAAFLHVLLPVALEFQPQLVLVAAGFDALQGDPKGEMAATPAGFAQLTHLLMGLAGGKLILSLEGGYNLRALAEGVSASLHTLLGDPCPMLESPGAPCRSAQASVSCALEALEPFWEVLVRSTETVERDNMEEDNVEESEEEGPWEPPVLPILTWPVLQSRTGLVYDQNMMNHCNLWDSHHPEVPQRILRIMCRLEELGLAGRCLTLTPRPATEAELLTCHSAEYVGHLRATEKMKTRELHRESSNFDSIYICPSTFACAQLATGAACRLVEAVLSGEVLNGAAVVRPPGHHAEQDAACGFCFFNSVAVAARHAQTISGHALRILIVDWDVHHGNGTQHMFEDDPSVLYVSLHRYDHGTFFPMGDEGASSQIGRAAGTGFTVNVAWNGPRMGDADYLAAWHRLVLPIAYEFNPELVLVSAGFDAARGDPLGGCQVSPEGYAHLTHLLMGLASGRIILILEGGYNLTSISESMAACTRSLLGDPPPLLTLPRPPLSGALASITETIQVHRRYWRSLRVMKVEDREGPSSSKLVTKKAPQPAKPRLAERMTTREKKVLEAGMGKVTSASFGEESTPGQTNSETAVVALTQDQPSEAATGGATLAQTISEAAIGGAMLGQTTSEEAVGGATPDQTTSEETVGGAILDQTTSEDAVGGATLGQTTSEEAVGGATLAQTTSEAAMEGATLDQTTSEEAPGGTELIQTPLASSTDHQTPPTSPVQGTTPQISPSTLIGSLRTLELGSESQGASESQAPGEENLLGEAAGGQDMADSMLMQGSRGLTDQAIFYAVTPLPWCPHLVAVCPIPAAGLDVTQPCGDCGTIQENWVCLSCYQVYCGRYINGHMLQHHGNSGHPLVLSYIDLSAWCYYCQAYVHHQALLDVKNIAHQNKFGEDMPHPH
B3: the Km in series [3] amounted to 16 µM.

B4: Histone deacetylase 9 (Homo sapiens), Q9UKV0 (protein)
chain: MHSMISSVDVKSEVPVGLEPISPLDLRTDLRMMMPVVDPVVREKQLQQELLLIQQQQQIQKQLLIAEFQKQHENLTRQHQAQLQEHIKELLAIKQQQELLEKEQKLEQQRQEQEVERHRREQQLPPLRGKDRGRERAVASTEVKQKLQEFLLSKSATKDTPTNGKNHSVSRHPKLWYTAAHHTSLDQSSPPLSGTSPSYKYTLPGAQDAKDDFPLRKTASEPNLKVRSRLKQKVAERRSSPLLRRKDGNVVTSFKKRMFEVTESSVSSSSPGSGPSSPNNGPTGSVTENETSVLPPTPHAEQMVSQQRILIHEDSMNLLSLYTSPSLPNITLGLPAVPSQLNASNSLKEKQKCETQTLRQGVPLPGQYGGSIPASSSHPHVTLEGKPPNSSHQALLQHLLLKEQMRQQKLLVAGGVPLHPQSPLATKERISPGIRGTHKLPRHRPLNRTQSAPLPQSTLAQLVIQQQHQQFLEKQKQYQQQIHMNKLLSKSIEQLKQPGSHLEEAEEELQGDQAMQEDRAPSSGNSTRSDSSACVDDTLGQVGAVKVKEEPVDSDEDAQIQEMESGEQAAFMQQPFLEPTHTRALSVRQAPLAAVGMDGLEKHRLVSRTHSSPAASVLPHPAMDRPLQPGSATGIAYDPLMLKHQCVCGNSTTHPEHAGRIQSIWSRLQETGLLNKCERIQGRKASLEEIQLVHSEHHSLLYGTNPLDGQKLDPRILLGDDSQKFFSSLPCGGLGVDSDTIWNELHSSGAARMAVGCVIELASKVASGELKNGFAVVRPPGHHAEESTAMGFCFFNSVAITAKYLRDQLNISKILIVDLDVHHGNGTQQAFYADPSILYISLHRYDEGNFFPGSGAPNEVGTGLGEGYNINIAWTGGLDPPMGDVEYLEAFRTIVKPVAKEFDPDMVLVSAGFDALEGHTPPLGGYKVTAKCFGHLTKQLMTLADGRVVLALEGGHDLTAICDASEACVNALLGNELEPLAEDILHQSPNMNAVISLQKIIEIQSMSLKFS
With B4, in series [4], the Km turned out to be 37 µM.

B5: Histone deacetylase 3 (Homo sapiens), O15379 (protein)
chain: MAKTVAYFYDPDVGNFHYGAGHPMKPHRLALTHSLVLHYGLYKKMIVFKPYQASQHDMCRFHSEDYIDFLQRVSPTNMQGFTKSLNAFNVGDDCPVFPGLFEFCSRYTGASLQGATQLNNKICDIAINWAGGLHHAKKFEASGFCYVNDIVIGILELLKYHPRVLYIDIDIHHGDGVQEAFYLTDRVMTVSFHKYGNYFFPGTGDMYEVGAESGRYYCLNVPLRDGIDDQSYKHLFQPVINQVVDFYQPTCIVLQCGADSLGCDRLGCFNLSIRGHGECVEYVKSFNIPLLVLGGGGYTVRNVARCWTYETSLLVEEAISEELPYSEYFEYFAPDFTLHPDVSTRIENQNSRQYLDQIRQTIFENLKMLNHAPSVQIHDVPADLLTYDRTDEADAEERGPEENYSRPEAPNEFYDGDHDNDKESDVEI
For B5, in series [5], the Km was found to be 6 µM.

B6: Histone deacetylase 7 (Homo sapiens), Q8WUI4 (protein)
chain: MDLRVGQRPPVEPPPEPTLLALQRPQRLHHHLFLAGLQQQRSVEPMRLSMDTPMPELQVGPQEQELRQLLHKDKSKRSAVASSVVKQKLAEVILKKQQAALERTVHPNSPGIPYRTLEPLETEGATRSMLSSFLPPVPSLPSDPPEHFPLRKTVSEPNLKLRYKPKKSLERRKNPLLRKESAPPSLRRRPAETLGDSSPSSSSTPASGCSSPNDSEHGPNPILGSEALLGQRLRLQETSVAPFALPTVSLLPAITLGLPAPARADSDRRTHPTLGPRGPILGSPHTPLFLPHGLEPEAGGTLPSRLQPILLLDPSGSHAPLLTVPGLGPLPFHFAQSLMTTERLSGSGLHWPLSRTRSEPLPPSATAPPPPGPMQPRLEQLKTHVQVIKRSAKPSEKPRLRQIPSAEDLETDGGGPGQVVDDGLEHRELGHGQPEARGPAPLQQHPQVLLWEQQRLAGRLPRGSTGDTVLLPLAQGGHRPLSRAQSSPAAPASLSAPEPASQARVLSSSETPARTLPFTTGLIYDSVMLKHQCSCGDNSRHPEHAGRIQSIWSRLQERGLRSQCECLRGRKASLEELQSVHSERHVLLYGTNPLSRLKLDNGKLAGLLAQRMFVMLPCGGVGVDTDTIWNELHSSNAARWAAGSVTDLAFKVASRELKNGFAVVRPPGHHADHSTAMGFCFFNSVAIACRQLQQQSKASKILIVDWDVHHGNGTQQTFYQDPSVLYISLHRHDDGNFFPGSGAVDEVGAGSGEGFNVNVAWAGGLDPPMGDPEYLAAFRIVVMPIAREFSPDLVLVSAGFDAAEGHPAPLGGYHVSAKCFGYMTQQLMNLAGGAVVLALEGGHDLTAICDASEACVAALLGNRVDPLSEEGWKQKPNLNAIRSLEAVIRVHSKYWGCMQRLASCPDSWVPRVPGADKEEVEAVTALASLSVGILAEDRPSEQLVEEEEPMNL
As for B6, in series [6], the Km amounted to 19.8 µM.
